Reference: patent US7910111

Key:
[1] = target: Endogenous NSF of human aortic endothelial cells (HAEC) (human) (UniProt P46459); assay: cell-based or functional assay
[2] = target: Recombinant RGS-(His)6-NSF (N-ethylmaleimide sensitive factor), wild-type (UniProt P18708); assay: cell-based or functional assay
Sequence of Recombinant RGS-(His)6-NSF (N-ethylmaleimide sensitive factor), wild-type (P18708 other isoform, or with tags, fused parts or gaps limits assumed): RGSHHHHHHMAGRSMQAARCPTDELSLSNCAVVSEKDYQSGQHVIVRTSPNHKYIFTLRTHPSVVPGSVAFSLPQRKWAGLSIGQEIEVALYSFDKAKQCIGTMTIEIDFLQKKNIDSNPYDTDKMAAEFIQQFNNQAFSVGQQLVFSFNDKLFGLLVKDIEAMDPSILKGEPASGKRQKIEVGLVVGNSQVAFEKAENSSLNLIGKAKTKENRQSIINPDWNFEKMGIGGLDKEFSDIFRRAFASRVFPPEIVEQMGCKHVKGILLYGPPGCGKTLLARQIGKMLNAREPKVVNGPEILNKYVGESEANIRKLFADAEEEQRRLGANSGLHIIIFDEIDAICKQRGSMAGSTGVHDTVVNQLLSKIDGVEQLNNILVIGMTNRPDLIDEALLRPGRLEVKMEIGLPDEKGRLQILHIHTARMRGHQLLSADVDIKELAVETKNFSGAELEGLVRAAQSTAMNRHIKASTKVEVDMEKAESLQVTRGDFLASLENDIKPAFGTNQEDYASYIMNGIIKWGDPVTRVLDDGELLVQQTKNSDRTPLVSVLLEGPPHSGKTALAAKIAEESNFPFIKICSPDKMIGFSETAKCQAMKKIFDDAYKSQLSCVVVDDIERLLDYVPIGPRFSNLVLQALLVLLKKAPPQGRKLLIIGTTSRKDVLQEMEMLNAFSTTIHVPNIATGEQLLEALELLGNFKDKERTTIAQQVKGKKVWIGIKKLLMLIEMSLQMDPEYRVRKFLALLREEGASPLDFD

## TAT-NSF81 (peptide)
[1]
  IC50% of endothelial exocytosis (vWF release): 1 to 10 µM
[2]
  IC50% of NSF ATPase activity: 1 to 10 µM
